Assay results published in US20250076311A1 (Chugai, published 2025).

T1: human FcγRIIb constitutively expressed on MDCK cells (human, UniProt P31994 43-310)
T1 sequence (looked up): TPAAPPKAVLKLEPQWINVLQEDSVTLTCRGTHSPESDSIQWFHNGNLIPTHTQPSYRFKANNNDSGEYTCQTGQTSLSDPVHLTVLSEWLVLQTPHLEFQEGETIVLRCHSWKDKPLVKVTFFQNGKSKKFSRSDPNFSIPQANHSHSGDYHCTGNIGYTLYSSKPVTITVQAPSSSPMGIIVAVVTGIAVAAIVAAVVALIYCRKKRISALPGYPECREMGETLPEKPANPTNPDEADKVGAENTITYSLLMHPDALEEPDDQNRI

T2: soluble mouse FcγRII, His-tagged (mouse, UniProt P08101 30-210, limits assumed)
T2 construct: Captured on the chip through an anti-His antibody
T2 sequence (looked up): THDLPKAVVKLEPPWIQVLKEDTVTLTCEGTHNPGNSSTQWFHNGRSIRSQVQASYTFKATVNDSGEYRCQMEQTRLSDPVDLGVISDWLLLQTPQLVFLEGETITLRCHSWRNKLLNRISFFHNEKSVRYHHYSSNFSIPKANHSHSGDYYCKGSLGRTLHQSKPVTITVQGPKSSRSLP

B1: M103205H795-P1491m/M103202L889-SK1 (antibody, human IgG1, kappa, name in EU numbering)
heavy: not shown
light: DIVMTQSPATLSLSPGERATLSCTSSQSVYHANWLSWFQQKPGQPPKLLIYWASTLAYGVPSRFSGSGSGTDFTLTISSLQPEDAATYYCAGGYGGGRYAFGQGTKVEIKRTVAAPSVFIFPPSDEQLKSGTASVVCLLNNFYPREAKVQWKVDNALQSGNSQESVTEQDSKDSTYSLSSTLTLSKADYEKHKVYACEVTHQGLSSPVTKSFNRGEC
notes: copies: 2 + 2
B2: M103205H795-P1495m/M103202L889-SK1 (antibody, human IgG1, kappa, name in EU numbering)
heavy: not shown
light: B1 light
notes: copies: 2 + 2
B3: M103205H795-P1531m/M103202L889-SK1 (antibody, human IgG1, kappa, name in EU numbering)
heavy: not shown
light: B1 light
notes: copies: 2 + 2
B4: M103205H795-P1500m/M103202L889-SK1 (antibody, human IgG1, kappa, name in EU numbering)
heavy: not shown
light: B1 light
B5: M103205H795-P1498m/M103202L889-SK1 (antibody, human IgG1, kappa, name in EU numbering)
heavy: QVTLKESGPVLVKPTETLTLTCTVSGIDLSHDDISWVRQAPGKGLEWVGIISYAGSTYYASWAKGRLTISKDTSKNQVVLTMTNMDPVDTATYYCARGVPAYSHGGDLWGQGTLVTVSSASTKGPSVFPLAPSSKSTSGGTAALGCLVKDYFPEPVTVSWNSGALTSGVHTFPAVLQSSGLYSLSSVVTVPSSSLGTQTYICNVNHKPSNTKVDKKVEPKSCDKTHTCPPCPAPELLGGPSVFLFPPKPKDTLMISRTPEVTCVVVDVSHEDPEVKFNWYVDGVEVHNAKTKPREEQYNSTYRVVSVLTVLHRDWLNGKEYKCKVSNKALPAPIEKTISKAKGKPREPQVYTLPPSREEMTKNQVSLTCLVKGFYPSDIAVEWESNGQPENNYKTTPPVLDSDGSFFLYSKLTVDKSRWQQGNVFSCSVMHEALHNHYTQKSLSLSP
light: B1 light
B6: M103205H795-P1497m/M103202L889-SK1 (antibody, human IgG1, kappa, name in EU numbering)
heavy: not shown
light: B1 light
B7: M103205H795-P1501m/M103202L889-SK1 (antibody, human IgG1, kappa, name in EU numbering)
heavy: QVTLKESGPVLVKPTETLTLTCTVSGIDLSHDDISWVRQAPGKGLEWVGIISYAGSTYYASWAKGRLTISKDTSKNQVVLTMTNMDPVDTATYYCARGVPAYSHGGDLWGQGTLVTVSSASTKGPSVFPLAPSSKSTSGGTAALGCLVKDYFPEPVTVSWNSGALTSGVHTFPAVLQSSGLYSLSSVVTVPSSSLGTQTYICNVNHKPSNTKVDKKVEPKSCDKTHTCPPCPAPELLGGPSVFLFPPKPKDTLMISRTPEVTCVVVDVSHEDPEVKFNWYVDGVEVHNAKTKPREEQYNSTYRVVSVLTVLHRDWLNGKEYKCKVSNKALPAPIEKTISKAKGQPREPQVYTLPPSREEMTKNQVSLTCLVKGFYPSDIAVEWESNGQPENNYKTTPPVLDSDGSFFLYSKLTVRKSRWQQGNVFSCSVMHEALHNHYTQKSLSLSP
light: B1 light
notes: copies: 2 + 2
B8: M103205H795-P1494m/M103202L889-SK1 (antibody, human IgG1, kappa, name in EU numbering)
heavy: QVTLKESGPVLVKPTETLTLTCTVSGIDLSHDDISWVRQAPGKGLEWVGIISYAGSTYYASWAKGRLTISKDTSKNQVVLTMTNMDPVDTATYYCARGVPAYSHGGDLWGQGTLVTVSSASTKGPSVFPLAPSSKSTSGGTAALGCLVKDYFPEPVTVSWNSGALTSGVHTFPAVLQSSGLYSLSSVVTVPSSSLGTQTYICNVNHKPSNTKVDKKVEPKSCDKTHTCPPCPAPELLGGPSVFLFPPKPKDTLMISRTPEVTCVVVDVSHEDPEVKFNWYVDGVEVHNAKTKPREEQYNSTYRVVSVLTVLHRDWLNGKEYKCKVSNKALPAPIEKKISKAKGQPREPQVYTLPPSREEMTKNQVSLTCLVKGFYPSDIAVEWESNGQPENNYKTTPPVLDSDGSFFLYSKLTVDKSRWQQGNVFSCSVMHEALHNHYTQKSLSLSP
light: B1 light
notes: copies: 2 + 2
B9: M103205H795-P1534m/M103202L889-SK1 (antibody, human IgG1, kappa, name in EU numbering)
heavy: not shown
light: B1 light
notes: copies: 2 + 2
B10: M103205H795-P1524m/M103202L889-SK1 (antibody, human IgG1, kappa, name in EU numbering)
heavy: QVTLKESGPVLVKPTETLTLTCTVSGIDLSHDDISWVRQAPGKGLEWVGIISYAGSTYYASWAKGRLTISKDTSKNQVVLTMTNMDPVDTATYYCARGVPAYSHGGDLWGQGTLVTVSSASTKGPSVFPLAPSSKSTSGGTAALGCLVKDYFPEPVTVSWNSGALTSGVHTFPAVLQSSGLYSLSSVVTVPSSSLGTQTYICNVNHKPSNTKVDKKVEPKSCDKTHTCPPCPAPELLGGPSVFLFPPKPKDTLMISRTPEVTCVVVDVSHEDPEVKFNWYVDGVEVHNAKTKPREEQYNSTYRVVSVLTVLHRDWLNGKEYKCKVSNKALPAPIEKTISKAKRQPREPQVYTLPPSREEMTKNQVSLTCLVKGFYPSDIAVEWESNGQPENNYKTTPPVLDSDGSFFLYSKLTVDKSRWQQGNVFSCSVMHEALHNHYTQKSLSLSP
light: B1 light
B11: M103205H795-P1533m/M103202L889-SK1 (antibody, human IgG1, kappa, name in EU numbering)
heavy: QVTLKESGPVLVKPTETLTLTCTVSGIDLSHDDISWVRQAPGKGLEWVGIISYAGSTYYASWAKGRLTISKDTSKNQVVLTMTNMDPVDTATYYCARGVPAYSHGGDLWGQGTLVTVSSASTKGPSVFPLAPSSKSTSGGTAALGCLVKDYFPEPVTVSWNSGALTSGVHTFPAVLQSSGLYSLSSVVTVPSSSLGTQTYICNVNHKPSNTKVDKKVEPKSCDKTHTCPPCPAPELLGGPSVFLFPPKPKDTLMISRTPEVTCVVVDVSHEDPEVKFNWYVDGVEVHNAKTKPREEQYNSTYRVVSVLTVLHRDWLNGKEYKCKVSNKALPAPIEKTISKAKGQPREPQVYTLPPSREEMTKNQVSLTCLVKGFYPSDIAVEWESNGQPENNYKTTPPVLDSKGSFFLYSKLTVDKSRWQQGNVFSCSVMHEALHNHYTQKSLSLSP
light: B1 light
notes: copies: 2 + 2
B12: M103205H795-P1492m/M103202L889-SK1 (antibody, human IgG1, kappa, name in EU numbering)
heavy: not shown
light: B1 light
notes: copies: 2 + 2
B13: M103205H795-P1539m/M103202L889-SK1 (antibody, human IgG1, kappa, name in EU numbering)
heavy: not shown
light: B1 light
notes: copies: 2 + 2
B14: M103205H795-P1529m/M103202L889-SK1 (antibody, human IgG1, kappa, name in EU numbering)
heavy: not shown
light: B1 light
notes: copies: 2 + 2
B15: M103205H795-P1538m/M103202L889-SK1 (antibody, human IgG1, kappa, name in EU numbering)
heavy: not shown
light: B1 light
notes: copies: 2 + 2
B16: M103205H795-P1522m/M103202L889-SK1 (antibody, human IgG1, kappa, name in EU numbering)
heavy: not shown
light: B1 light
notes: copies: 2 + 2
B17: M103205H795-P1527m/M103202L889-SK1 (antibody, human IgG1, kappa, name in EU numbering)
heavy: not shown
light: B1 light
notes: copies: 2 + 2
B18: M103205H795-P1493m/M103202L889-SK1 (antibody, human IgG1, kappa, name in EU numbering)
heavy: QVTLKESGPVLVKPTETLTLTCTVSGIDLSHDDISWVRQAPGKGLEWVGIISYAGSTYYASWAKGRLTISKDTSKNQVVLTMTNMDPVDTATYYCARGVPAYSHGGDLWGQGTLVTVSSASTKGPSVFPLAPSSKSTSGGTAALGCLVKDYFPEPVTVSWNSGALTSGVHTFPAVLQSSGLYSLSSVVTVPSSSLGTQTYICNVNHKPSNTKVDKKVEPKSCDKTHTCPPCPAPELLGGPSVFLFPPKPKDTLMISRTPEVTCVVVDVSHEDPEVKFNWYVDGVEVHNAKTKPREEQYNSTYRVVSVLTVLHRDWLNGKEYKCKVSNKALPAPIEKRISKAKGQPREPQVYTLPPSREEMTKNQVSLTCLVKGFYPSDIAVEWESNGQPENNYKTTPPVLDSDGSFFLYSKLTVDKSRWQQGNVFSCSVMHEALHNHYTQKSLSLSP
light: B1 light
notes: copies: 2 + 2
B19: M103205H795-P1540m/M103202L889-SK1 (antibody, human IgG1, kappa, name in EU numbering)
heavy: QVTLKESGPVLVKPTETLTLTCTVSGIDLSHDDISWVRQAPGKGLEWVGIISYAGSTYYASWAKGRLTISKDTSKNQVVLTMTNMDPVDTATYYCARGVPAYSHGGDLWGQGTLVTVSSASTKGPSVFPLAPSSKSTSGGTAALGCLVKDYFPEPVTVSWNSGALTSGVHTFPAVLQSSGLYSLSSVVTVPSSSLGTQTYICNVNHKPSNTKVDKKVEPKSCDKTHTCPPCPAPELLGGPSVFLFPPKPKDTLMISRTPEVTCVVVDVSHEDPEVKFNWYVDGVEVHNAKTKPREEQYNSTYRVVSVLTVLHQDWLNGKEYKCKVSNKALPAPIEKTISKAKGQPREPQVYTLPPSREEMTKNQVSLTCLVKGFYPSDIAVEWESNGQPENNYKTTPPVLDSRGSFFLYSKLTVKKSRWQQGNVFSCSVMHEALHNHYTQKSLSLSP
light: B1 light
notes: copies: 2 + 2
B20: M103205H795-P1535m/M103202L889-SK1 (antibody, human IgG1, kappa, name in EU numbering)
heavy: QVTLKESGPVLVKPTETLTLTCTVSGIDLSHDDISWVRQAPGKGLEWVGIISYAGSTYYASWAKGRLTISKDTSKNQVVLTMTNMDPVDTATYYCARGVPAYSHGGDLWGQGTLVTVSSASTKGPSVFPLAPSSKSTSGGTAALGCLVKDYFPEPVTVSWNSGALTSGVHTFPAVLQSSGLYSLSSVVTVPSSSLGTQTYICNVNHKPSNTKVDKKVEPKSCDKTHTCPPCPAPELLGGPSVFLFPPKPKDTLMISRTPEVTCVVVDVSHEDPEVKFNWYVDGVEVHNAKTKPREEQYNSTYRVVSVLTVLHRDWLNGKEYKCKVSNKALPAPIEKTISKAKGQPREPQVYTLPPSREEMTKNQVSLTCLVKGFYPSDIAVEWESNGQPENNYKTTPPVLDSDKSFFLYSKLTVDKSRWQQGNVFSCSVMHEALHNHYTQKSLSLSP
light: B1 light
notes: copies: 2 + 2
B21: M103205H795-P1528m/M103202L889-SK1 (antibody, human IgG1, kappa, name in EU numbering)
heavy: not shown
light: B1 light
notes: copies: 2 + 2
B22: M103205H795-P1525m/M103202L889-SK1 (antibody, human IgG1, kappa, name in EU numbering)
heavy: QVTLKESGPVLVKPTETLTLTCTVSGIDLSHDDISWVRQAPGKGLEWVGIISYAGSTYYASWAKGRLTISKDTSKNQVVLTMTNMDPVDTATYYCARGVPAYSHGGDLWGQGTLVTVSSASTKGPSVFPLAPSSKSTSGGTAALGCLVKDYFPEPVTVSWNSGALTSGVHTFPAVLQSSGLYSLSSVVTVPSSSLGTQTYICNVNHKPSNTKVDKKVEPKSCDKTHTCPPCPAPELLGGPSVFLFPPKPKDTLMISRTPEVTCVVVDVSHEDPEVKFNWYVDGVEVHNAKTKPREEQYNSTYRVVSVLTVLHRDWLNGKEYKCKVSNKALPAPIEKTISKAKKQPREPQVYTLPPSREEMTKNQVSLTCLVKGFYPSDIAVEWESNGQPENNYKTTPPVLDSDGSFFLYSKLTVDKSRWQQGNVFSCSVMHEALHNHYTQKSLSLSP
light: B1 light
B23: M103205H795-P1496m/M103202L889-SK1 (antibody, human IgG1, kappa, name in EU numbering)
heavy: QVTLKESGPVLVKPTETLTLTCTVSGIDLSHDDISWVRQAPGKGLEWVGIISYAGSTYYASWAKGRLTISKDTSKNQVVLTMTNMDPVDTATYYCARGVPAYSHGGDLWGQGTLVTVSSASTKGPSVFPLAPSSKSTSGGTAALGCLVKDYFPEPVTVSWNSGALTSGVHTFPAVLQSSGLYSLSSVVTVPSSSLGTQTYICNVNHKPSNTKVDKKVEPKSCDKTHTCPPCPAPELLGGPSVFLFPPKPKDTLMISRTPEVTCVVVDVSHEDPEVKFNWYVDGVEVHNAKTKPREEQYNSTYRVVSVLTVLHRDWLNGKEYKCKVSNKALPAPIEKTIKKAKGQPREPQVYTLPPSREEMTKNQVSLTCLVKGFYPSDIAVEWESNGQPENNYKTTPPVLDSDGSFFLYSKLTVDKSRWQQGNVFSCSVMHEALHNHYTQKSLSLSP
light: B1 light
notes: copies: 2 + 2
B24: M103205H795-P1530m/M103202L889-SK1 (antibody, human IgG1, kappa, name in EU numbering)
heavy: not shown
light: B1 light
notes: copies: 2 + 2
B25: M103205H795-P1532m/M103202L889-SK1 (antibody, human IgG1, kappa, name in EU numbering)
heavy: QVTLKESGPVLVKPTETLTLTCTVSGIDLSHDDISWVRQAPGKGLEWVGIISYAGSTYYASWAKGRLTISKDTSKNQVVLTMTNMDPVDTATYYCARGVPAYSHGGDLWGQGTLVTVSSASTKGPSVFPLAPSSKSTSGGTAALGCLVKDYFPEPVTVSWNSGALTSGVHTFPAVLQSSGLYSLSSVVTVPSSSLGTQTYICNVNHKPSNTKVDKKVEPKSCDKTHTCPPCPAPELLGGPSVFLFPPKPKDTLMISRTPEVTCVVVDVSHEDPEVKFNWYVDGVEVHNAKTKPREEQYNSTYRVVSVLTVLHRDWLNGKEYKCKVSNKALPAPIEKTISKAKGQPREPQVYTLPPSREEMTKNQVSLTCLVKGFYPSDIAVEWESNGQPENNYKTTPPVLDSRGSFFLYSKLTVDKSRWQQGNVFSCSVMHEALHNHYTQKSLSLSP
light: B1 light
notes: copies: 2 + 2
B26: M103205H795-P1526m/M103202L889-SK1 (antibody, human IgG1, kappa, name in EU numbering)
heavy: not shown
light: B1 light
notes: copies: 2 + 2
B27: M103205H795-P1523m/M103202L889-SK1 (antibody, human IgG1, kappa, name in EU numbering)
heavy: not shown
light: B1 light
notes: copies: 2 + 2
B28: M103205H795-P1541m/M103202L889-SK1 (antibody, human IgG1, kappa, name in EU numbering)
heavy: not shown
light: B1 light
notes: copies: 2 + 2
B29: M103205H795-P1537m/M103202L889-SK1 (antibody, human IgG1, kappa, name in EU numbering)
heavy: not shown
light: B1 light
notes: copies: 2 + 2
B30: M103205H795-P1536m/M103202L889-SK1 (antibody, human IgG1, kappa, name in EU numbering)
heavy: not shown
light: B1 light
notes: copies: 2 + 2

Target: T1, human FcγRIIb constitutively expressed …
Assay: cell-based or functional assay

celluar uptake (labelled human latent myostatin taken up as antigen-antibody complex) | Binder
1.37 relative to SG1 = 1.00 | B1
1.76 relative to SG1 = 1.00 | B2
2.35 relative to SG1 = 1.00 | B3
1.82 relative to SG1 = 1.00 | B4
1.56 relative to SG1 = 1.00 | B5
1.38 relative to SG1 = 1.00 | B6
2.4 relative to SG1 = 1.00 | B7
1.12 relative to SG1 = 1.00 | B8
3.12 relative to SG1 = 1.00 | B9
3.66 relative to SG1 = 1.00 | B10
3.52 relative to SG1 = 1.00 | B11
1.13 relative to SG1 = 1.00 | B12
3.2 relative to SG1 = 1.00 | B13
2.86 relative to SG1 = 1.00 | B14
1.84 relative to SG1 = 1.00 | B15
2.13 relative to SG1 = 1.00 | B16
0.92 relative to SG1 = 1.00 | B17
0.99 relative to SG1 = 1.00 | B18
7.64 relative to SG1 = 1.00 | B19
2.49 relative to SG1 = 1.00 | B20
3.02 relative to SG1 = 1.00 | B21
3.55 relative to SG1 = 1.00 | B22
1.69 relative to SG1 = 1.00 | B23
3.12 relative to SG1 = 1.00 | B24
4.16 relative to SG1 = 1.00 | B25
1.2 relative to SG1 = 1.00 | B26
1.91 relative to SG1 = 1.00 | B27
7.17 relative to SG1 = 1.00 | B28
2.77 relative to SG1 = 1.00 | B29
2.05 relative to SG1 = 1.00 | B30

Target: T2, soluble mouse FcγRII, His-tagged
Assay: SPR, mouse FcγRII captured via His-tag, antigen-antibody complex injected, pH 7.4, 25 C
Method: Regarding the produced Fc region variant-containing antibodies, binding assays between soluble mouse FcγRII and antigen-antibody complexes were performed using BIACORE® T200 (GE Healthcare). Soluble mouse FcγRII was produced in the form of a His-tagged molecule by a method known to those skilled in the art. An appropriate amount of an anti-His antibody was fixed onto Sensor chip CM5 (GE Healthcare) by the amine coupling method using a His capture kit (GE Healthcare) to capture mouse FcγRII. Next, an antibody-antigen complex and a running buffer (as a reference solution) were injected, and interaction was allowed to take place with the mouse FcγRII captured onto the sensor chip. 20 mM N-(2-Acetamido)-2-aminoethanesulfonic acid, 150 mM NaCl, 1.2 mM CaCl₂), and 0.05% (w/v) TWEEN® 20 at pH7.4 was used as the running buffer, and the respective buffer was also used to dilute the soluble mouse FcγRII. To regenerate the sensor chip, 10 mM glycine-HCl at pH1.5 was used. All measurements were carried out at 25° C. […] To calculate the parameters, the BIACORE® T100 Evaluation Software (GE Healthcare) was used.

biacore IC binding (relative, SG1 = 1.00) | Binder
1.05 relative to SG1 | B1
1.3 relative to SG1 | B2
1.01 relative to SG1 | B3
1.32 relative to SG1 | B4
1.38 relative to SG1 | B5
1.49 relative to SG1 | B6
1.82 relative to SG1 | B7
1.14 relative to SG1 | B8
1.12 relative to SG1 | B9
1.4 relative to SG1 | B10
1.18 relative to SG1 | B11
0.88 relative to SG1 | B12
0.9 relative to SG1 | B13
1.08 relative to SG1 | B14
1.11 relative to SG1 | B15
1.24 relative to SG1 | B16
0.98 relative to SG1 | B17
1.1 relative to SG1 | B18
1.73 relative to SG1 | B19
1.11 relative to SG1 | B20
1.12 relative to SG1 | B21
1.31 relative to SG1 | B22
1.28 relative to SG1 | B23
1.09 relative to SG1 | B24
1.23 relative to SG1 | B25
1.04 relative to SG1 | B26
1.19 relative to SG1 | B27
1.57 relative to SG1 | B28
1.32 relative to SG1 | B29
1.16 relative to SG1 | B30
